Experimental data: patent publication US20260097129A1 (KOOKMIN UNIVERSITY INDUSTRY ACADEMY COOPERATION FOUNDATION, published 2026)

B1: K101.1-DM1 (antibody, V domains shown)
VH: EVQLLESGGGLVQPGGSLRLSCAASGFTFSNYSMSWVRQAPGKGLEWVSGIYYGSGNKYYADSVKGRFTISRDNSKNTLYLQMNSLRAEDTAVYYCAKNLASFDYWGQGTLVTVSS
VL: QSVLTQPPSASGTPGQRVTISCSGSSSNIGSNSVNWYQQLPGTAPKLLIYSNSHRPSGVPDRFSGSKSGTSASLAISGLRSEDEADYYCGTWDSSLSGYVFGGGTKLTVL
modifications: SMCC-DM1 conjugated to lysine residues of the antibody (positions not stated)
B2: K101.3-DM1 (antibody, V domains shown)
VH: EVQLLESGGGLVQPGGSLRLSCAASGFTFSGYAMSWVRQAPGKGLEWVSAISHGGSSKYYADSVKGRFTISRDNSKNTLYLQMNSLRAEDTAVYYCAKDLLSPLQSIGSYDDAMDVWGQGTLVTVSS
VL: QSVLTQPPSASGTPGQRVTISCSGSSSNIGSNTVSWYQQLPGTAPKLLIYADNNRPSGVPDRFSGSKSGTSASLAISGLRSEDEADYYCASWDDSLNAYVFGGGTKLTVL
modifications: SMCC-DM1 conjugated to lysine residues of the antibody (positions not stated)

Target: GRP94 on human CRC cells (HCT116, LoVo, HT29, HCT8) (human, UniProt P14625 22-803)
Assay: cell-based or functional assay

Sequence of GRP94 on human CRC cells (HCT116, LoVo, HT29, HCT8) (P14625 22-803): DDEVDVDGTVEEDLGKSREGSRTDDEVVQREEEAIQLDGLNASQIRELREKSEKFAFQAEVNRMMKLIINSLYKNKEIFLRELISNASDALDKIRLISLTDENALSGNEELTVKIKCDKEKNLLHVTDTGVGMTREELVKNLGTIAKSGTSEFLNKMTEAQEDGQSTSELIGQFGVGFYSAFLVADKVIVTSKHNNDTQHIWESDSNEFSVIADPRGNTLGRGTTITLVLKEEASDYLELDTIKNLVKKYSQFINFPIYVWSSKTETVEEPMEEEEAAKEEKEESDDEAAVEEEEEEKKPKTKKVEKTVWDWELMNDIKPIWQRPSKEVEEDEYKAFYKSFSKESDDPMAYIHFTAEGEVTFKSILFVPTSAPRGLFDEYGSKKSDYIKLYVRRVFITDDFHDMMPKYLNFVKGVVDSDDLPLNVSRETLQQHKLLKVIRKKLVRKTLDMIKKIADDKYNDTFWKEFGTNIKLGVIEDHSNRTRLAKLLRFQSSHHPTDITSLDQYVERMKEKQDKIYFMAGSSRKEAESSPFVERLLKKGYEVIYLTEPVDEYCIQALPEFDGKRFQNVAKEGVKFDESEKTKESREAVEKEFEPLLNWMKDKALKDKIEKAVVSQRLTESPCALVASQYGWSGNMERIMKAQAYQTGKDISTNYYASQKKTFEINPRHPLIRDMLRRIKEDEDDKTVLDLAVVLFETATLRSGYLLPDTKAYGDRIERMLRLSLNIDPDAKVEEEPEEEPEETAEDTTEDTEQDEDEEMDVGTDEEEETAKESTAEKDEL

Row | Binder | IC50 of cell viability (CCK-8), HCT8 cells [nM] | IC50 of cell viability (CCK-8), HCT116 cells [nM] | IC50 of cell viability (CCK-8), HT29 cells [nM] | IC50 of cell viability (CCK-8), LoVo cells [nM]
1 | B1 | 78.8 | 34.9 | 77.7 | 52.5
2 | B2 | 44.9 | 57.8 | 48.3 | 35.5
